This experiment deals with human corticotropin-releasing factor 2α (CRF2 α receptor) (human), Q13324. Briefly: cell-based or functional assay.

Starred links: 1 amine or outer side, 2 acyl side, 3 side chain; linkers in the order of their positions; H or OH if unused. Non-standard residues stand in square brackets, D forms with d. Groups on a side chain read outwards from the residue. No end group written: not given here. *: point of attachment. C18 diacid = O=C(O)CCCCCCCCCCCCCCCCC(=O)*; γGlu = O=C(O)[C@H](CCC(=O)[*:2])N[*:1]; AEEA = NCCOCCOCC(=O)O; Aib = CC(C)(N)C(=O)O

Chain of human corticotropin-releasing factor 2α (CRF2 α receptor) (human), Q13324 (Q13324 20-411): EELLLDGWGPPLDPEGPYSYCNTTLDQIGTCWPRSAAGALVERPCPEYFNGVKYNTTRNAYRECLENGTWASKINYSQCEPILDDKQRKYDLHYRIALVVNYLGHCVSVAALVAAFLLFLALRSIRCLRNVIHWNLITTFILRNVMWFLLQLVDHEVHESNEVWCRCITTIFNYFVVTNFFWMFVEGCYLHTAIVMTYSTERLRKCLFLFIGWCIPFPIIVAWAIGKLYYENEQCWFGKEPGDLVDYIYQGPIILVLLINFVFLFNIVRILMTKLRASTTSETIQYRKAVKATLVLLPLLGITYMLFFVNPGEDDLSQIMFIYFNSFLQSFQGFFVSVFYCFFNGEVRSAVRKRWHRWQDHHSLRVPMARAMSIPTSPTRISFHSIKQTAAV

B1: SEQ ID NO: 90 (peptide)
peptide: IVLSLDVPIKLK([AEEA-AEEA-γGlu-C18 diacid])QILLKQERQKKQREKAKTNVQILAQV-NH2
modifications: N-terminus assumed
SMILES: CC[C@H](C)[C@H](N)C(=O)N[C@H](C(=O)N[C@@H](CC(C)C)C(=O)N[C@@H](CO)C(=O)N[C@@H](CC(C)C)C(=O)N[C@@H](CC(=O)O)C(=O)N[C@H](C(=O)N1CCC[C@H]1C(=O)N[C@H](C(=O)N[C@@H](CCCCN)C(=O)N[C@@H](CC(C)C)C(=O)N[C@@H](CCCCNC(=O)COCCOCCNC(=O)COCCOCCNC(=O)CC[C@H](NC(=O)CCCCCCCCCCCCCCCCC(=O)O)C(=O)O)C(=O)N[C@@H](CCC(N)=O)C(=O)N[C@H](C(=O)N[C@@H](CC(C)C)C(=O)N[C@@H](CC(C)C)C(=O)N[C@@H](CCCCN)C(=O)N[C@@H](CCC(N)=O)C(=O)N[C@@H](CCC(=O)O)C(=O)N[C@@H](CCCNC(=N)N)C(=O)N[C@@H](CCC(N)=O)C(=O)N[C@@H](CCCCN)C(=O)N[C@@H](CCCCN)C(=O)N[C@@H](CCC(N)=O)C(=O)N[C@@H](CCCNC(=N)N)C(=O)N[C@@H](CCC(=O)O)C(=O)N[C@@H](CCCCN)C(=O)N[C@@H](C)C(=O)N[C@@H](CCCCN)C(=O)N[C@H](C(=O)N[C@@H](CC(N)=O)C(=O)N[C@H](C(=O)N[C@@H](CCC(N)=O)C(=O)N[C@H](C(=O)N[C@@H](CC(C)C)C(=O)N[C@@H](C)C(=O)N[C@@H](CCC(N)=O)C(=O)N[C@H](C(N)=O)C(C)C)[C@@H](C)CC)C(C)C)[C@@H](C)O)[C@@H](C)CC)[C@@H](C)CC)C(C)C)C(C)C
On to B1, for which the EC50 [nM], 0% HSA was 3.91 nM and the EC50 [nM], 0.1% HSA came to 92.6 nM.

B2: SEQ ID NO: 91 (peptide)
peptide: IVLSLDVPIKLK([AEEA-AEEA-γGlu-C18 diacid])QKLLKQERQKKQREKAKTN[Aib]QILAQV-NH2
modifications: N-terminus assumed
SMILES: CC[C@H](C)[C@H](N)C(=O)N[C@H](C(=O)N[C@@H](CC(C)C)C(=O)N[C@@H](CO)C(=O)N[C@@H](CC(C)C)C(=O)N[C@@H](CC(=O)O)C(=O)N[C@H](C(=O)N1CCC[C@H]1C(=O)N[C@H](C(=O)N[C@@H](CCCCN)C(=O)N[C@@H](CC(C)C)C(=O)N[C@@H](CCCCNC(=O)COCCOCCNC(=O)COCCOCCNC(=O)CC[C@H](NC(=O)CCCCCCCCCCCCCCCCC(=O)O)C(=O)O)C(=O)N[C@@H](CCC(N)=O)C(=O)N[C@@H](CCCCN)C(=O)N[C@@H](CC(C)C)C(=O)N[C@@H](CC(C)C)C(=O)N[C@@H](CCCCN)C(=O)N[C@@H](CCC(N)=O)C(=O)N[C@@H](CCC(=O)O)C(=O)N[C@@H](CCCNC(=N)N)C(=O)N[C@@H](CCC(N)=O)C(=O)N[C@@H](CCCCN)C(=O)N[C@@H](CCCCN)C(=O)N[C@@H](CCC(N)=O)C(=O)N[C@@H](CCCNC(=N)N)C(=O)N[C@@H](CCC(=O)O)C(=O)N[C@@H](CCCCN)C(=O)N[C@@H](C)C(=O)N[C@@H](CCCCN)C(=O)N[C@H](C(=O)N[C@@H](CC(N)=O)C(=O)NC(C)(C)C(=O)N[C@@H](CCC(N)=O)C(=O)N[C@H](C(=O)N[C@@H](CC(C)C)C(=O)N[C@@H](C)C(=O)N[C@@H](CCC(N)=O)C(=O)N[C@H](C(N)=O)C(C)C)[C@@H](C)CC)[C@@H](C)O)[C@@H](C)CC)C(C)C)C(C)C
For B2, the EC50 [nM], 0% HSA turned out to be 14.3 nM.

B3: SEQ ID NO: 92 (peptide)
peptide: IVLSLDVPIKLK([AEEA-AEEA-γGlu-C18 diacid])QKLLEQERQKKQREQAETN[Aib]QILAQV-NH2
modifications: N-terminus assumed
SMILES: CC[C@H](C)[C@H](N)C(=O)N[C@H](C(=O)N[C@@H](CC(C)C)C(=O)N[C@@H](CO)C(=O)N[C@@H](CC(C)C)C(=O)N[C@@H](CC(=O)O)C(=O)N[C@H](C(=O)N1CCC[C@H]1C(=O)N[C@H](C(=O)N[C@@H](CCCCN)C(=O)N[C@@H](CC(C)C)C(=O)N[C@@H](CCCCNC(=O)COCCOCCNC(=O)COCCOCCNC(=O)CC[C@H](NC(=O)CCCCCCCCCCCCCCCCC(=O)O)C(=O)O)C(=O)N[C@@H](CCC(N)=O)C(=O)N[C@@H](CCCCN)C(=O)N[C@@H](CC(C)C)C(=O)N[C@@H](CC(C)C)C(=O)N[C@@H](CCC(=O)O)C(=O)N[C@@H](CCC(N)=O)C(=O)N[C@@H](CCC(=O)O)C(=O)N[C@@H](CCCNC(=N)N)C(=O)N[C@@H](CCC(N)=O)C(=O)N[C@@H](CCCCN)C(=O)N[C@@H](CCCCN)C(=O)N[C@@H](CCC(N)=O)C(=O)N[C@@H](CCCNC(=N)N)C(=O)N[C@@H](CCC(=O)O)C(=O)N[C@@H](CCC(N)=O)C(=O)N[C@@H](C)C(=O)N[C@@H](CCC(=O)O)C(=O)N[C@H](C(=O)N[C@@H](CC(N)=O)C(=O)NC(C)(C)C(=O)N[C@@H](CCC(N)=O)C(=O)N[C@H](C(=O)N[C@@H](CC(C)C)C(=O)N[C@@H](C)C(=O)N[C@@H](CCC(N)=O)C(=O)N[C@H](C(N)=O)C(C)C)[C@@H](C)CC)[C@@H](C)O)[C@@H](C)CC)C(C)C)C(C)C
For the molecule B3, the EC50 [nM], 0% HSA is 9.17 nM.

B4: SEQ ID NO: 95 (peptide)
peptide: IVLSLDVPIKLK([AEEA-AEEA-γGlu-C18 diacid])QKLLKQERQKKEREQAETNKQILAQV-NH2
modifications: N-terminus assumed
SMILES: CC[C@H](C)[C@H](N)C(=O)N[C@H](C(=O)N[C@@H](CC(C)C)C(=O)N[C@@H](CO)C(=O)N[C@@H](CC(C)C)C(=O)N[C@@H](CC(=O)O)C(=O)N[C@H](C(=O)N1CCC[C@H]1C(=O)N[C@H](C(=O)N[C@@H](CCCCN)C(=O)N[C@@H](CC(C)C)C(=O)N[C@@H](CCCCNC(=O)COCCOCCNC(=O)COCCOCCNC(=O)CC[C@H](NC(=O)CCCCCCCCCCCCCCCCC(=O)O)C(=O)O)C(=O)N[C@@H](CCC(N)=O)C(=O)N[C@@H](CCCCN)C(=O)N[C@@H](CC(C)C)C(=O)N[C@@H](CC(C)C)C(=O)N[C@@H](CCCCN)C(=O)N[C@@H](CCC(N)=O)C(=O)N[C@@H](CCC(=O)O)C(=O)N[C@@H](CCCNC(=N)N)C(=O)N[C@@H](CCC(N)=O)C(=O)N[C@@H](CCCCN)C(=O)N[C@@H](CCCCN)C(=O)N[C@@H](CCC(=O)O)C(=O)N[C@@H](CCCNC(=N)N)C(=O)N[C@@H](CCC(=O)O)C(=O)N[C@@H](CCC(N)=O)C(=O)N[C@@H](C)C(=O)N[C@@H](CCC(=O)O)C(=O)N[C@H](C(=O)N[C@@H](CC(N)=O)C(=O)N[C@@H](CCCCN)C(=O)N[C@@H](CCC(N)=O)C(=O)N[C@H](C(=O)N[C@@H](CC(C)C)C(=O)N[C@@H](C)C(=O)N[C@@H](CCC(N)=O)C(=O)N[C@H](C(N)=O)C(C)C)[C@@H](C)CC)[C@@H](C)O)[C@@H](C)CC)C(C)C)C(C)C
B4 gave an EC50 [nM], 0% HSA of 25 nM.

B5: SEQ ID NO: 94 (peptide)
peptide: IVLSLDVPIKLK([AEEA-AEEA-γGlu-C18 diacid])KILLKQERQKKEREQAETNKQILAQV-NH2
modifications: N-terminus assumed
SMILES: CC[C@H](C)[C@H](N)C(=O)N[C@H](C(=O)N[C@@H](CC(C)C)C(=O)N[C@@H](CO)C(=O)N[C@@H](CC(C)C)C(=O)N[C@@H](CC(=O)O)C(=O)N[C@H](C(=O)N1CCC[C@H]1C(=O)N[C@H](C(=O)N[C@@H](CCCCN)C(=O)N[C@@H](CC(C)C)C(=O)N[C@@H](CCCCNC(=O)COCCOCCNC(=O)COCCOCCNC(=O)CC[C@H](NC(=O)CCCCCCCCCCCCCCCCC(=O)O)C(=O)O)C(=O)N[C@@H](CCCCN)C(=O)N[C@H](C(=O)N[C@@H](CC(C)C)C(=O)N[C@@H](CC(C)C)C(=O)N[C@@H](CCCCN)C(=O)N[C@@H](CCC(N)=O)C(=O)N[C@@H](CCC(=O)O)C(=O)N[C@@H](CCCNC(=N)N)C(=O)N[C@@H](CCC(N)=O)C(=O)N[C@@H](CCCCN)C(=O)N[C@@H](CCCCN)C(=O)N[C@@H](CCC(=O)O)C(=O)N[C@@H](CCCNC(=N)N)C(=O)N[C@@H](CCC(=O)O)C(=O)N[C@@H](CCC(N)=O)C(=O)N[C@@H](C)C(=O)N[C@@H](CCC(=O)O)C(=O)N[C@H](C(=O)N[C@@H](CC(N)=O)C(=O)N[C@@H](CCCCN)C(=O)N[C@@H](CCC(N)=O)C(=O)N[C@H](C(=O)N[C@@H](CC(C)C)C(=O)N[C@@H](C)C(=O)N[C@@H](CCC(N)=O)C(=O)N[C@H](C(N)=O)C(C)C)[C@@H](C)CC)[C@@H](C)O)[C@@H](C)CC)[C@@H](C)CC)C(C)C)C(C)C
In turn, B5 yielded an EC50 [nM], 0% HSA of 1.73 nM and an EC50 [nM], 0.1% HSA of 49.1 nM.

B6: SEQ ID NO: 93 (peptide)
peptide: IVLSLDVPIKLK([AEEA-AEEA-γGlu-C18 diacid])QKLLKQERQKKQREKAKTNVQILAQV-NH2
modifications: N-terminus assumed
SMILES: CC[C@H](C)[C@H](N)C(=O)N[C@H](C(=O)N[C@@H](CC(C)C)C(=O)N[C@@H](CO)C(=O)N[C@@H](CC(C)C)C(=O)N[C@@H](CC(=O)O)C(=O)N[C@H](C(=O)N1CCC[C@H]1C(=O)N[C@H](C(=O)N[C@@H](CCCCN)C(=O)N[C@@H](CC(C)C)C(=O)N[C@@H](CCCCNC(=O)COCCOCCNC(=O)COCCOCCNC(=O)CC[C@H](NC(=O)CCCCCCCCCCCCCCCCC(=O)O)C(=O)O)C(=O)N[C@@H](CCC(N)=O)C(=O)N[C@@H](CCCCN)C(=O)N[C@@H](CC(C)C)C(=O)N[C@@H](CC(C)C)C(=O)N[C@@H](CCCCN)C(=O)N[C@@H](CCC(N)=O)C(=O)N[C@@H](CCC(=O)O)C(=O)N[C@@H](CCCNC(=N)N)C(=O)N[C@@H](CCC(N)=O)C(=O)N[C@@H](CCCCN)C(=O)N[C@@H](CCCCN)C(=O)N[C@@H](CCC(N)=O)C(=O)N[C@@H](CCCNC(=N)N)C(=O)N[C@@H](CCC(=O)O)C(=O)N[C@@H](CCCCN)C(=O)N[C@@H](C)C(=O)N[C@@H](CCCCN)C(=O)N[C@H](C(=O)N[C@@H](CC(N)=O)C(=O)N[C@H](C(=O)N[C@@H](CCC(N)=O)C(=O)N[C@H](C(=O)N[C@@H](CC(C)C)C(=O)N[C@@H](C)C(=O)N[C@@H](CCC(N)=O)C(=O)N[C@H](C(N)=O)C(C)C)[C@@H](C)CC)C(C)C)[C@@H](C)O)[C@@H](C)CC)C(C)C)C(C)C
In turn, B6 displayed an EC50 [nM], 0% HSA of 50.9 nM.

Values taken from patent US12679878B2, “CRF2 receptor agonists and their use in therapy” (SANOFI, priority 2020, dated 2026).
